This note sets out measurements from PMC7229837, “Molecular architecture of the DNA-binding sites of the P-loop ATPases MipZ and ParA from Caulobacter crescentus”.

The term Kd denotes a measure of binding affinity in units of concentration.

Holding throughout (conditions): protein: recombinant; tags: C-terminal His6 (pET21a); chain copies: 2; label: Cy3 (5') on strand 1; blunt
The target in data set [1] is T1, MipZ WT (Caulobacter crescentus, UniProt Q9A6C9 1-278).
T1 sequence: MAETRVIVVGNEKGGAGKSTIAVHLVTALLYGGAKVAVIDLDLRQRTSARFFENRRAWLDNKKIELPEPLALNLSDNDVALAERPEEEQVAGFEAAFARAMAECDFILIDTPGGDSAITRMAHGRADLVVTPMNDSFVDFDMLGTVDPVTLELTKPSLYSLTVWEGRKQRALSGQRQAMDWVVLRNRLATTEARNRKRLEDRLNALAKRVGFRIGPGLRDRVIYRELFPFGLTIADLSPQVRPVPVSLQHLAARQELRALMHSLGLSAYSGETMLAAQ
Description: MST; EMSA: 10 mM HEPES/NaOH pH 7.2, 150 mM NaCl, 10 mM MgCl2, 0.05% Tween 20, 0.46 mM ATPgS, room temp; BLI: 50 mM HEPES/NaOH pH 7.2, 50 mM NaCl, 5 mM MgCl2, 0.1 mM. A general note: Mobility shift assays separate free from complexed probe on a gel.

Data set [2] deals with T2, MipZ L248A (Caulobacter crescentus, UniProt Q9A6C9 1-278, L248A).
T2 sequence: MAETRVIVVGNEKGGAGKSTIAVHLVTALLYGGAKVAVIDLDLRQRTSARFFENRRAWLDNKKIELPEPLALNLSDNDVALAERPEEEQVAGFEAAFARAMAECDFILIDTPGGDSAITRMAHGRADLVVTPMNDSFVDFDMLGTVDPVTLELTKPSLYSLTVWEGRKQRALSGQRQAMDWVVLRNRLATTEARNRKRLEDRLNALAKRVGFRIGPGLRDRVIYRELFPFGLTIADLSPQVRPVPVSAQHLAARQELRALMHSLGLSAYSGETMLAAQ
Described as above.

Data set [3] has as its target T3, MipZ D42A (Caulobacter crescentus, UniProt Q9A6C9 1-278, D42A).
T3 sequence: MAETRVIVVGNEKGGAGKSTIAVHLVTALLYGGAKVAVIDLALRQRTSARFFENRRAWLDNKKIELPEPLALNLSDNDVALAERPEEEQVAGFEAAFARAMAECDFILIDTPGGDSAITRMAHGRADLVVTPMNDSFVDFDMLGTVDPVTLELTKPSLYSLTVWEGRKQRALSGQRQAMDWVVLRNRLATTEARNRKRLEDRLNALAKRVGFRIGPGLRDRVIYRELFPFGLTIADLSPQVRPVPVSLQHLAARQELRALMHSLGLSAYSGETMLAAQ
The data set is described as above.

In data set [4] the target is T4, MipZ R194A (Caulobacter crescentus, UniProt Q9A6C9 1-278, R194A).
T4 sequence: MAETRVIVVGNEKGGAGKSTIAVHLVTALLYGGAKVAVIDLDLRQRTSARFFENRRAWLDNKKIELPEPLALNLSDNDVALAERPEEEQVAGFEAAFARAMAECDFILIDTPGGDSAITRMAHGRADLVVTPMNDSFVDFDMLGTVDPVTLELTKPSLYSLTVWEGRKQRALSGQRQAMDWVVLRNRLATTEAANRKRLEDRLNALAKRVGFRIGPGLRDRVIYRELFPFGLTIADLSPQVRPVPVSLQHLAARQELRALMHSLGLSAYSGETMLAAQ
The data set can be described thus: MST; hardly any binding; EMSA: 10 mM HEPES/NaOH pH 7.2, 150 mM NaCl, 10 mM MgCl2, 0.05% Tween 20, 0.46 mM ATPgS, room temp; BLI: 50 mM HEPES/NaOH pH 7.2, 50 mM NaCl, 5 mM MgCl2, 0.1 mM.

Data set [5] addresses T5, MipZ R198A (Caulobacter crescentus, UniProt Q9A6C9 1-278, R198A).
T5 sequence: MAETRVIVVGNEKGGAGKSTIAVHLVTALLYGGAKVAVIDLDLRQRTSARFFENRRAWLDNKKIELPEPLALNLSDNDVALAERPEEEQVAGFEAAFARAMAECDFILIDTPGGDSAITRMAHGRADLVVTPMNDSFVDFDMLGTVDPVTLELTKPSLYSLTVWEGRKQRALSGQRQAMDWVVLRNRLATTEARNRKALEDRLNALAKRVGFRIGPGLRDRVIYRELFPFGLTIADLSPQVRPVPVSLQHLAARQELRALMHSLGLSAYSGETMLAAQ
Described as above.

The target of data set [6] is T6, MipZ R221A (Caulobacter crescentus, UniProt Q9A6C9 1-278, R221A).
T6 sequence: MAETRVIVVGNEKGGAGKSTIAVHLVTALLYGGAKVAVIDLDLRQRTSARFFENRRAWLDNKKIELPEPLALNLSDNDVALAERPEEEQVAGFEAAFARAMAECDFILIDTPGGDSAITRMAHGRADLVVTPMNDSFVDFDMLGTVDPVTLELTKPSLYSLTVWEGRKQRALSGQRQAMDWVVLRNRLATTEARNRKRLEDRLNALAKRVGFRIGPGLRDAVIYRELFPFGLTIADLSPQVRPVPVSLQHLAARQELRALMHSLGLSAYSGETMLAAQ
Described as above.

B1: rand-Cy3/rand-rev 26 bp (dsDNA)
DNA 1: GAGGCAGACTAGATCTTCTAGTTCGG
DNA 2: CCGAACTAGAAGATCTAGTCTGCCTC
Take B1: the Kd in data set [1], in data set [2] and in data set [3] was less than 10 µM each time. The binding result in data set [4], in data set [5] and in data set [6] was “no binding” each time.
